According to the Human Domainome abundance scans (Beltran et al. 2025):
± gives the uncertainty stated by the source.

B1: Peroxisome proliferator-activated receptor delta, residues 71 to 145; numbered along this chain, Q03181 (parent)
chain: NMECRVCGDKASGFHYGVHACEGCKGFFRRTIRMKLEYEKCERSCKIQKKNRNKCQYCRFQKCLALGMSHNAIRF

Variants of: B1
Experiment: abundance fitness (aPCA) (normalised: wild type 0, dead -1); higher = more abundant; growth selection in yeast, the domain comes from the species named
Details: Homo sapiens

Variant	abundance fitness
NMECRVCGDKASGFHYGVHACECCKGFFRRTIRMKLEYEKCERSCKIQKKNRNKCQYCRFQKCLALGMSHNAIRF	0.071 ± 0.053
NMECRVCGDKASGFHYGVHACEVCKGFFRRTIRMKLEYEKCERSCKIQKKNRNKCQYCRFQKCLALGMSHNAIRF	-0.325 ± 0.052
NMECRVCGDKASGFHYGVHACESCKGFFRRTIRMKLEYEKCERSCKIQKKNRNKCQYCRFQKCLALGMSHNAIRF	0.146 ± 0.034
NMECRVCGDKASGFHYGVHACEWCKGFFRRTIRMKLEYEKCERSCKIQKKNRNKCQYCRFQKCLALGMSHNAIRF	0.084 ± 0.045
NMECRVCGDKASGFHYGVHACEKCKGFFRRTIRMKLEYEKCERSCKIQKKNRNKCQYCRFQKCLALGMSHNAIRF	-0.034 ± 0.062
NMECRVCGDKASGFHYGVHACEDCKGFFRRTIRMKLEYEKCERSCKIQKKNRNKCQYCRFQKCLALGMSHNAIRF	0.192 ± 0.054
NMECRVCGDKASGFHYGVHACETCKGFFRRTIRMKLEYEKCERSCKIQKKNRNKCQYCRFQKCLALGMSHNAIRF	-0.203 ± 0.055
NMECRVCGDKASGFHYGVHACEECKGFFRRTIRMKLEYEKCERSCKIQKKNRNKCQYCRFQKCLALGMSHNAIRF	0.17 ± 0.04
NMECRVCGDKASGFHYGVHACEQCKGFFRRTIRMKLEYEKCERSCKIQKKNRNKCQYCRFQKCLALGMSHNAIRF	-0.009 ± 0.049
NMECRVCGDKASGFHYGVHACEHCKGFFRRTIRMKLEYEKCERSCKIQKKNRNKCQYCRFQKCLALGMSHNAIRF	0.26 ± 0.088
NMECRVCGDKASGFHYGVHACENCKGFFRRTIRMKLEYEKCERSCKIQKKNRNKCQYCRFQKCLALGMSHNAIRF	0.109 ± 0.078
NMECRVCGDKASGFHYGVHACEICKGFFRRTIRMKLEYEKCERSCKIQKKNRNKCQYCRFQKCLALGMSHNAIRF	-0.244 ± 0.098
NMECRVCGDKASGFHYGVHACERCKGFFRRTIRMKLEYEKCERSCKIQKKNRNKCQYCRFQKCLALGMSHNAIRF	-0.179 ± 0.036
NMECRVCGDKASGFHYGVHACEMCKGFFRRTIRMKLEYEKCERSCKIQKKNRNKCQYCRFQKCLALGMSHNAIRF	0.009 ± 0.056
NMECRVCGDKASGFHYGVHACELCKGFFRRTIRMKLEYEKCERSCKIQKKNRNKCQYCRFQKCLALGMSHNAIRF	-0.061 ± 0.04
NMECRVCGDKASGFHYGVHACEFCKGFFRRTIRMKLEYEKCERSCKIQKKNRNKCQYCRFQKCLALGMSHNAIRF	-0.001 ± 0.084
NMECRVCGDKASGFHYGVHSCEGCKGFFRRTIRMKLEYEKCERSCKIQKKNRNKCQYCRFQKCLALGMSHNAIRF	-0.168 ± 0.05
NMECRVCGDKASGFHYGVHMCEGCKGFFRRTIRMKLEYEKCERSCKIQKKNRNKCQYCRFQKCLALGMSHNAIRF	-0.456 ± 0.13

Variant	abundance fitness
NMECRVCGDKASGFHYGVHGCEGCKGFFRRTIRMKLEYEKCERSCKIQKKNRNKCQYCRFQKCLALGMSHNAIRF	-0.847 ± 0.11
NMECRVCGDKASGFHYGVHTCEGCKGFFRRTIRMKLEYEKCERSCKIQKKNRNKCQYCRFQKCLALGMSHNAIRF	-0.057 ± 0.05
NMECRVCGDKASGFHYGVHQCEGCKGFFRRTIRMKLEYEKCERSCKIQKKNRNKCQYCRFQKCLALGMSHNAIRF	-0.874 ± 0.21
NMECRVCGDKASGFHYGVHWCEGCKGFFRRTIRMKLEYEKCERSCKIQKKNRNKCQYCRFQKCLALGMSHNAIRF	-0.534 ± 0.11
NMECRVCGDKASGFHYGVHLCEGCKGFFRRTIRMKLEYEKCERSCKIQKKNRNKCQYCRFQKCLALGMSHNAIRF	-0.106 ± 0.051
NMECRVCGDKASGFHYGVHICEGCKGFFRRTIRMKLEYEKCERSCKIQKKNRNKCQYCRFQKCLALGMSHNAIRF	-0.023 ± 0.11
NMECRVCGDKASGFHYGVHPCEGCKGFFRRTIRMKLEYEKCERSCKIQKKNRNKCQYCRFQKCLALGMSHNAIRF	-0.792 ± 0.15
NMECRVCGDKASGFHYGVHHCEGCKGFFRRTIRMKLEYEKCERSCKIQKKNRNKCQYCRFQKCLALGMSHNAIRF	-0.594 ± 0.22
NMECRVCGDKASGFHYGVHECEGCKGFFRRTIRMKLEYEKCERSCKIQKKNRNKCQYCRFQKCLALGMSHNAIRF	-0.886 ± 0.16
NMECRVCGDKASGFHYGVHCCEGCKGFFRRTIRMKLEYEKCERSCKIQKKNRNKCQYCRFQKCLALGMSHNAIRF	0.139 ± 0.06
NMECRVCGDKASGFHYGVHNCEGCKGFFRRTIRMKLEYEKCERSCKIQKKNRNKCQYCRFQKCLALGMSHNAIRF	-0.222 ± 0.17
NMECRVCGDKASGFHYGVHFCEGCKGFFRRTIRMKLEYEKCERSCKIQKKNRNKCQYCRFQKCLALGMSHNAIRF	0.145 ± 0.13
NMECRVCGDKASGFHYGVHVCEGCKGFFRRTIRMKLEYEKCERSCKIQKKNRNKCQYCRFQKCLALGMSHNAIRF	-0.077 ± 0.045
NMECRVCGDKASGFHYGVHRCEGCKGFFRRTIRMKLEYEKCERSCKIQKKNRNKCQYCRFQKCLALGMSHNAIRF	-0.707 ± 0.11
NMECRVCGDKASGFHYGVHKCEGCKGFFRRTIRMKLEYEKCERSCKIQKKNRNKCQYCRFQKCLALGMSHNAIRF	-0.771 ± 0.24
NMECRVCGDKASGFHYGVHDCEGCKGFFRRTIRMKLEYEKCERSCKIQKKNRNKCQYCRFQKCLALGMSHNAIRF	-0.99 ± 0.35
NMECRVCGDKASGFHYGVVACEGCKGFFRRTIRMKLEYEKCERSCKIQKKNRNKCQYCRFQKCLALGMSHNAIRF	-0.083 ± 0.046
NMECRVCGDKASGFHYGVWACEGCKGFFRRTIRMKLEYEKCERSCKIQKKNRNKCQYCRFQKCLALGMSHNAIRF	-0.001 ± 0.044
